Test results taken from patent US20220241369A1, “COMPOSITIONS AND METHODS OF MODULATING INFLAMMATION” (La Jolla Institute for Allergy and Immunology, priority 2018, published 2022).

How the values were obtained:
[1] = molecular target: IgE on mucosal (IgE+ mMCP-1+, c-Kit+) mast cells of the small intestine of OVA-sensitized/OVA-challenged mice (mouse); assay: confocal microscopy of jejunum, anti-His tag staining (data not shown)
[2] = test system: OVA-induced food allergy (allergic diarrhea); assay: Therapeutic i.v. treatment with HRF inhibitor after allergic diarrhea is established; assay type: in vivo, mouse; conditions: i.v. 30 μg twice
Experimental: FIGS. 5A-5F show therapeutic treatment with HRF inhibitor ameliorates the severity of food allergy. Mice were sensitized and i.g. challenged with OVA. By the seventh OVA challenge, all the mice suffered diarrhea. These mice were pretreated i.v. with 30 μg of HRF-2CA (2CA) or PBS (OVA) before challenged with OVA two more times. (FIG. 5A) Procedure scheme. (FIG. 5B) Diarrhea severity (n=11 for OVA, n=13 for HRF-2CA and n=4 for non-sensitized control (not shown); pooled data of two independent experiments). ***: p<0.001 by two-way ANOVA. (FIG. 5C) Total and OVA-specific IgE and IgG1 concentration in sera were measured by ELISA. (FIG. 5D) mMCP-1 in sera was measured by ELISA. (FIG. 5E) Sections of jejunum were stained with chloroacetate esterase. (FIG. 5C—FIG. 5E) *, **, ***: p<0.05, p<0.01, p<0.001 by Student's t-test. (FIG. 5F) Similar i.v. therapeutic treatment of allergic mice was conducted with 30 μg of synthetic N19 peptide (n=12 for OVA and n=12 for pepN19; pooled data of two independent experiments). […] by two-way ANOVA.
Mice were i.p. sensitized with OVA (50 μg/mouse) plus alum on days 0 and 14. From day 28, mice were i.g. challenged with OVA (25 or 50 mg) or PBS (control) three times a week. Before each challenge, mice were starved for 3 h, then i.g. pretreated with GST, GST-N19 (100 μg/mouse), synthetic N19 peptide, or HRF-2CA. The development of diarrhea was monitored for 90 min after OVA challenge. Diarrhea severity (30) was based on states of stool: solid (score 0), funicular (score 1), slurry (score 2), and watery (score 3).
Applicant next tested whether HRF inhibitors modulate food allergy after diarrhea has begun. […] One cohort of mice was intravenously (i.v.) treated twice with PBS followed by OVA challenge, and the other were i.v. treated twice with 30 μg of HRF-2CA followed by OVA challenge (FIG. 5A).

[3] = test system: OVA-induced allergic diarrhea; assay: Food allergy experiments in WT and FceRIa-/-, FcgRIIB-/-, Enpp3-/- mice; assay type: in vivo, mouse; conditions: WT and mutant mice, via FcεRI
From the text: FIGS. 10A-10C show HRF-2CA suppresses allergic diarrhea via FcεRI. WT and mutant mice were subjected to food allergy experiments as described in the FIG. 1 legend. FceRIa^−/− (n=4-5 each for group with sensitization and n=3 each for unsensitized group (Cont; no diarrhea was observed))(FIG. 10A), FcgRIIB^−/− (n=9-10 each for groups with sensitization and n=4-5 each for unsensitized groups (Cont; no diarrhea was observed); pooled data of two independent experiments) (FIG. 10B), and Enpp3^−/− (n=9-10 each for groups with sensitization and n=7 each for unsensitized groups (Cont; no diarrhea was observed); pooled data of two independent experiments) (FIG. 10C) mice along with WT mice were used. *, ***: p<0.05, p<0.001 by Student's t-test.
BALB/c mice were bred in the animal facility of RIKEN IMS. Frozen zygotes of FceRIa^−/− mice were donated by Takashi Saito (RIKEN IMS) and bred at RIKEN IMS. FcgRIIB^−/− mice provided by Toshiyuki Takai (Tohoku University) were also bred at RIKEN IMS. Food allergy experiments with Enpp3^−/− mice were conducted at Osaka University. All genetically modified mice were backcrossed to BALB/c background for more than ten generations.
Mice were i.p. sensitized with OVA (50 μg/mouse) plus alum on days 0 and 14. […] The development of diarrhea was monitored for 90 min after OVA challenge. […]

[4] = test system: sensitization phase of murine food allergy; assay: Pretreatment with HRF inhibitor before sensitization with OVA plus alum; assay type: in vivo, mouse; conditions: 100 μg i.g. one day before i.p. immunization on days 0 and 14
Experimental: Mice were i.g. pretreated with 100 μg of GST, GST-N19, HRF-2CA or PBS (OVA) one day before i.p. immunization with OVA plus alum on days 0 and 14. From day 28, mice were i.g. challenged with OVA three times a week. (FIG. 9A) Procedure scheme. (FIG. 9B) The development of diarrhea was monitored after OVA challenge. (n=5 for OVA, n=4 for GST, n=5 for N19, n=5 for 2CA, and n=3 each for unsensitized pretreated groups (not shown)). (FIG. 9C, FIG. 9D) Total IgE and IgG1 were measured by ELISA.
Whether HRF inhibitors affect the sensitization phase of food allergy was tested.

B1: HRF-2CA-His6, a monomeric mutant of mouse HRF (protein)
chain: MIIYRDLISHDELFSDIYKIREIADGLALEVEGKMVSRTEGAIDDSLIGGNASAEGPEGEGTESTVVTGVDIVMNHHLQETSFTKEAYKKYIKDYMKSLKGKLEEQKPERVKPFMTGAAEQIKHILANFNNYQFFIGENMNPDGMVALLDYREDGVTPFMIFFKDGLEMEKAHHHHHH
percent of IgE+ mMCP-1+ mast cells targeted [1]: 64% | clinical scores (diarrhea severity, severity of food allergy) ([2]; after diarrhea by the 7th OVA challenge): significantly reduced | mucosal mast cells ([2]; therapeutic): did not reduce | serum mMCP-1 levels ([2]; therapeutic): modestly but significantly reduced | total IgE, IgG1 ([2]; therapeutic): did not reduce | allergic diarrhea [3]: suppresses | sensitization phase of murine food allergy [4]: do not affect
